In patent EP3492597A2 one finds transduction efficiency (EGFP expression, 72 hr) in T47D+hHGFR cells against T47D cells and transduction of T47D+hHGFR cells against parental T47D cells data, which are given here for 3 substances.

The experiment addresses human hepatocyte growth factor receptor (hHGFR) (human) (UniProt P08581). Put plainly: cell-based or functional assay.
UniProt P08581, sequence (P08581 25-1390): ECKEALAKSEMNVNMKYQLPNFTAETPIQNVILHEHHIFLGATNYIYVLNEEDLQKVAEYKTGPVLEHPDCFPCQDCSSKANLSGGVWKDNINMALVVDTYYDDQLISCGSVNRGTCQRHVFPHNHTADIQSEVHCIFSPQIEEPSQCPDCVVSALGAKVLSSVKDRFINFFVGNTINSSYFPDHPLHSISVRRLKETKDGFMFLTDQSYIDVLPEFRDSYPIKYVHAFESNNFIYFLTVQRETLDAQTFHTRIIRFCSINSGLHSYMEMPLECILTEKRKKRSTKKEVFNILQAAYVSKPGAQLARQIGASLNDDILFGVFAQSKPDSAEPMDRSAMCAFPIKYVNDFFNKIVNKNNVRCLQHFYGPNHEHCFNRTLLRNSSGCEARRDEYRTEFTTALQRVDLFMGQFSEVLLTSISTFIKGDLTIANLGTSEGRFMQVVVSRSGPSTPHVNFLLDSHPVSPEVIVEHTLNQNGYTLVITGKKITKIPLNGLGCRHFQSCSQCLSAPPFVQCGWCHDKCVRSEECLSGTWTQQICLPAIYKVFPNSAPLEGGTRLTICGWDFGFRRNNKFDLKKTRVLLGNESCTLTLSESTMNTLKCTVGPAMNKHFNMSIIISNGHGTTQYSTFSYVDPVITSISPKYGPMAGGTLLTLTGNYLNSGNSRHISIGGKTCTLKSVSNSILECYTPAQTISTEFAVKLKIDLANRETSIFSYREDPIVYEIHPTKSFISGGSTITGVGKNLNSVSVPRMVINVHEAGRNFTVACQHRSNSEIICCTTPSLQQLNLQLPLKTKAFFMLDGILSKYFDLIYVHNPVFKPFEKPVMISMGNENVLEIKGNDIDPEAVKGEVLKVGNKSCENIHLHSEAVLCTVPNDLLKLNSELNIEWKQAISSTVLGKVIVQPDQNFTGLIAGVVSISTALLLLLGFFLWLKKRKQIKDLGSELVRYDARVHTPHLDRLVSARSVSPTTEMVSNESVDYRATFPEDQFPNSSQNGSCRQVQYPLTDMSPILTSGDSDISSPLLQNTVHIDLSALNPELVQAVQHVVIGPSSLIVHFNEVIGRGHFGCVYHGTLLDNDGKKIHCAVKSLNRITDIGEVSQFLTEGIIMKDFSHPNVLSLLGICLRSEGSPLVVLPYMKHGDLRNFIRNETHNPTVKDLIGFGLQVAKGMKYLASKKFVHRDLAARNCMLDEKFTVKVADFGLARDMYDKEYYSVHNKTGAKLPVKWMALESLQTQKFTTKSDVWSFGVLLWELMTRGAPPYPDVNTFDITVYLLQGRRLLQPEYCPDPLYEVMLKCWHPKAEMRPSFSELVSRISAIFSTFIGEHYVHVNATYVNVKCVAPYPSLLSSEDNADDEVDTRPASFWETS

“wild-type AAV3 capsid (scAAV3-CBAp-EGFP vector)”: the transduction efficiency (EGFP expression, 72 hr) in T47D+hHGFR cells against T47D cells was in the range of 8 to 13 fold and the transduction of T47D+hHGFR cells against parental T47D cells was greater than 5 fold.

As to “Y705+731F double-mutant AAV3 capsid (Y705+731F scAAV3-CBAp-EGFP vector)”, the transduction of T47D+hHGFR cells against parental T47D cells is greater than 5 fold.

For the substance “S663V+T492V mutant AAV3 capsid (rAAV3-S663V+T492V vector)”, the transduction of T47D+hHGFR cells against parental T47D cells was greater than 5 fold.
